Molecular target: T1, 血清标本中的AFP抗原 (UniProt P02771 19-609)
T1 construct: also called 质控血清AFP; 标准血清中的AFP
T1 sequence (looked up): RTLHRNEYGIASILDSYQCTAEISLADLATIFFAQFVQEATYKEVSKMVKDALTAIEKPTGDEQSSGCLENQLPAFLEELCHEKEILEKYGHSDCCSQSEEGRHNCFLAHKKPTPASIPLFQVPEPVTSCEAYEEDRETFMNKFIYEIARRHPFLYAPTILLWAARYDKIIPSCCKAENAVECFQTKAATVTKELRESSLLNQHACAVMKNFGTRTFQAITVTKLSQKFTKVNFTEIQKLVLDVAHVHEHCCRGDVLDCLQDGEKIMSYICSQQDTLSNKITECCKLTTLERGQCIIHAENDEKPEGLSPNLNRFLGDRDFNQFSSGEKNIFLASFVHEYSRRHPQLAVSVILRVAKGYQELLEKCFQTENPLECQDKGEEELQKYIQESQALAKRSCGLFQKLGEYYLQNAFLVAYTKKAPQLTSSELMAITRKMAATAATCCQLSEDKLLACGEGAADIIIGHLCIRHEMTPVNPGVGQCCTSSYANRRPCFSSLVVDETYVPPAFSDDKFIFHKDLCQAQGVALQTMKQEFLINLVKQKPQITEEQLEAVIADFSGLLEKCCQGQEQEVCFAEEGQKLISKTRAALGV
Test: double-antibody sandwich chemiluminescent immunoassay, detection antibody

B1: 带有化学发光区序列的纳米抗体1C5-HAP (other)
chain: QVQLQESGGGLVQAGGSLRLSCKASERTFSSYSMAWYRQAPGKKREFVASISWDDERTYYTDSVKGRFTISRPNAKNTVYLQMNSLKPEDTAVYYCAVGGLSDGLGPSYDYWGQGTQVTVSSGGGGSGGGGSGGGGSIIPVEEENPDFWNREAAEALGAAKKLQPAQTAAKNLIIFLGDGMGVSTVTAARILKGQKKDKLGPEIPLAMDRFPYVALSKTYNVDKHVPDSGATATAYLCGVKGNFQTIGLSAAARFNQCNTTRGNEVISVMNRAKKAGKSVGVVTTTRVQHASPAGTYAHTVNRNWYSDADVPASARQEGCQDIATQLISNMDIDVILGGGRKYMFRMGTPDPEYPDDYSQGGTRLDGKNLVQEWLAKRQGARYVWNRTELMQASLDPSVTHLMGLFEPGDMKYEIHRDSTLDPSLMEMTEAALRLLSRNPRGFFLFVEGGRIDHGHHESRAYRALTETIMFDDAIERAGQLTSEEDTLSLVTADHSHVFSFGGYPLRGSSIFGLAPGKARDRKAYTVLLYGNGPGYVLKDGARPDVTESESGSPEYRQQSAVPLDEETHAGEDVAVFARGPQAHLVHGVQEQTFIAHVMAFAACLEPYTACDLAPPAGTTD
notes: Expressed in 293 cells
binding result: binds

— patent CN113234166A (SHENZHEN INNOVA NANOBODI CO LTD, dated 2021)
